± gives the half width of the 95% confidence interval.

Here are results for 39 sequences from the supplement of paper PMC12764529.

Data set [1] can be described thus: folding stability dG unfold (combined trypsin and chymotrypsin); higher = more stable. In a few lines:
(§1)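 Digests were run with trypsin and chymotrypsin at 11 concentrations in threefold dilutions, plus a no-protease condition, on designed mini-proteins in a PA-tagged cDNA display construct. The mini-proteins were under 80 residues, had no cysteine, and were kept only when AlphaFold2 dimer inter-PAE was above 15. After sequencing, Bayesian fitting of the counts gave K50, from which unfolding free energy was derived against a sequence-predicted unfolded-state K50 and a shared folded-state K50, per protease or combined.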

Data set [2] can be described thus: folding stability dG unfold from trypsin proteolysis; higher = more stable. In a few lines: as §1
Data set [3] in a line: folding stability dG unfold from chymotrypsin proteolysis; higher = more stable. In a few lines:
as §1

“AAPEGAVVTFDDKEITVAPDETLYLVNGKLYTKSEIPAVLKQLSPETEYTELTVAGDTGEVETETKHIYRPS [r1_304_JUSTAS]”: the “folding stability dG unfold” value in data set [1] was determined as 1.25 ± 0.14 kcal/mol; in data set [2], 0.867 ± 0.097 kcal/mol; in data set [3], 1.51 ± 0.12 kcal/mol.
As to “ADFRVTEESPEGVVTQTTTVALPDGTSRTLTYSYSKDASLTSVTVSYTPDSVTTTTTPVTPVPPGSPELAGS [r1_53_JUSTAS]”, the “folding stability dG unfold” value was 0.0981 ± 0.13 kcal/mol in data set [1], -0.411 ± 0.17 kcal/mol in data set [2] and 0.24 ± 0.19 kcal/mol in data set [3].
In the same order, the values of “ARELPVEEIREAVREFLRKHGFRVVSEEVVELPDGSVLVFVEAEPEDKSTRYRLVITRPVDGSVRLVIEPVS [r1_460_TrMRF]” are 3.283 ± 0.028 kcal/mol, 2.66 ± 0.044 kcal/mol and 3.588 ± 0.011 kcal/mol.
In the same order, the values of “AVTVTVEPVGDALVVTVDLPRADGSPVRVVALFDPDGTVARVLVARSDPGPPRFVEVPAAPASDPVLLAAGS [r1_301_TrMRF]” are 0.993 ± 0.13 kcal/mol, 0.23 ± 0.2 kcal/mol and 1.38 ± 0.14 kcal/mol.
The corresponding values for “DDWVTLPVEIWIPVRNPDGKPLTPEQVKETANSIRNELARNHGIDVEVDVKVEPVGPNGYYRINATVTIRPS [r1_231_TrROS]” are 2.72 ± 0.14 kcal/mol, 2.23 ± 0.1 kcal/mol and 2.98 ± 0.055 kcal/mol.
On to “DIDIETHPNGTILIKVPRNLLDEIKDILKENGYNVKITGIDPDWGYIRFPLKPVPPPPPKPSPEDAEEQGDS [r1_78_TrROS]”, for which the “folding stability dG unfold” value is 1.89 ± 0.14 kcal/mol in data set [1], 1.76 ± 0.082 kcal/mol in data set [2] and 2.14 ± 0.041 kcal/mol in data set [3].
Regarding “DMEPEPFTIELPNVKIEVQVYRTPNKLSVNAPIEFPNGKNLTISFKYEPTPDGIKLEISIMIPKKAIEKLLS [r1_153_TrROS]”, the results for the “folding stability dG unfold” value in data set [1], in data set [2] and in data set [3] were 3.1 ± 0.3 kcal/mol, 2.33 ± 0.097 kcal/mol and 3.44 ± 0.1 kcal/mol, respectively.
Take “DRIEIDVEMYDGYFYKIEIRWPGNGEPRELMFPGSLSEAKDFAEDLIQEQHPGAPVDEIDVEPVPMPPGDFS [r1_80_TrROS]”: the “folding stability dG unfold” value turned out to be 1.69 ± 0.19 kcal/mol in data set [1], 0.683 ± 0.2 kcal/mol in data set [2] and 2.01 ± 0.05 kcal/mol in data set [3].
As to “DYKIKIPVARFPDGYWYIRAEIEDPDGETHEYEYPIPMPPGDTFDIDLPEDEPYKIKKIWIYHNGKPQPITS [r1_70_TrROS]”, the figures for the “folding stability dG unfold” value in data set [1], in data set [2] and in data set [3] were 1.16 ± 0.16 kcal/mol, 0.922 ± 0.11 kcal/mol and 1.36 ± 0.15 kcal/mol, respectively.
Turning to “EEIIEKLKEEGYEIVSVSIKEVNGKKKIFIAVRRKDKPEYLLVEIDLENKEVKIKKVKKFPKGESIEDILSS [r1_383_TrROS_Hall]”, the figures for the “folding stability dG unfold” value in data set [1], in data set [2] and in data set [3] were 3.56 ± 0.27 kcal/mol, 2.95 ± 0.2 kcal/mol and 3.98 ± 0.23 kcal/mol, respectively.
In the same order, the values of “EKALEAARELARKLAEELGVEVEVRVKKVSVLNENGELIAEVEVEITVRPLPPPVVEEEEVEEEEVEFEEES [r1_318_TrROS_Hall]” are 1.99 ± 0.23 kcal/mol, 1.82 ± 0.1 kcal/mol and 2.18 ± 0.17 kcal/mol.
Consider “FEELRNLPGLSLTPLAEEGEVRVYRLSLPPSVLAARGLPGVTVTVTVFPDGSYTVLPDDVPALEAAGLVVES [r1_256_JUSTAS]”, for which the “folding stability dG unfold” value in data set [1] turned out to be 2.03 ± 0.045 kcal/mol; in data set [2] it was 1.05 ± 0.02 kcal/mol; in data set [3], 2.43 ± 0.037 kcal/mol.
The corresponding values for “FRFTIPLPDGKKIIIDYRPMPDGNYMFDVKLQLPNGKERTIPIMVPREEFPGMPMEEMAETMVKEALKKLKS [r1_92_TrROS]” are 3.3 ± 0.26 kcal/mol, 2.63 ± 0.15 kcal/mol and 3.4 ± 0.13 kcal/mol.
In the same order, the values of “FTMDEMKELADNIADNLAKEDGYKIKSVNIDATIPIPVYMKVRPDPNGEPRWEMHWMPIKVKINVEIKPPNS [r1_91_TrROS]” are 2.55 ± 0.36 kcal/mol, 2.02 ± 0.18 kcal/mol and 2.55 ± 0.09 kcal/mol.
As to “GEERTFSLWVKTKSPQEARQLQEKIKDILRGPGYEVKIDDVEVSPNGWMKVNITMRPGMPQDRLRDALRKIS [r1_485_TrROS]”, the results for the “folding stability dG unfold” value in data set [1], in data set [2] and in data set [3] were 4.99 ± 0.07 kcal/mol, 3.93 ± 0.082 kcal/mol and 5.24 ± 0.06 kcal/mol, respectively.
Regarding “GMMPEVKEYEVVVEVSLSDPSFASMTPEELAERAVAEVAAKPDFDPVEVEILSVKELPDGTYVVKVRITVRS [r1_484_JUSTAS]”, the “folding stability dG unfold” value in data set [1] came to 3.91 ± 0.14 kcal/mol; in data set [2], 4.48 ± 0.2 kcal/mol; in data set [3], 3.15 ± 0.12 kcal/mol.
In the same order, the values of “GPSPVSVSTSTSTSLSTVGNTPVLVTTTTTTTTTLSPDPTDPSVTTTTTTTTTTTTVYDPANGKPLSTTTSS [r1_406_JUSTAS]” are 1.83 ± 0.14 kcal/mol, 1.83 ± 0.079 kcal/mol and 1.86 ± 0.059 kcal/mol.
In the same order, the values of “GRMYIVKIEIKVKRRDPEEGETRERKLEVHVIFPPNDPDALEKADEIARNLAEEDGITDVKVKIYPIRLPDS [r1_346_TrROS]” are 1.74 ± 0.22 kcal/mol, 1.48 ± 0.051 kcal/mol and 1.89 ± 0.073 kcal/mol.
In the same order, the values of “GSLVTVFPFPENGKTVEVVVPESVGTPLSEAEIRALLLEAHPDVPAAALPAEEAAEILQATPGVEAARVVAS [r1_463_JUSTAS]” are -0.302 ± 0.35 kcal/mol, -0.877 ± 0.7 kcal/mol and -0.0131 ± 0.19 kcal/mol.
Regarding “ITITYDKETGELTVTLSVEIEREDGYLVRVSVTIRINPNGEIKIEKKIEVIKLPPAEVKLTDEELEKLKKES [r1_4_TrROS_Hall]”, the results for the “folding stability dG unfold” value in data set [1], in data set [2] and in data set [3] were 2.49 ± 0.27 kcal/mol, 2.41 ± 0.1 kcal/mol and 2.51 ± 0.11 kcal/mol, respectively.
For “KAYKVVFPLPKEGRTVVVYVPEEHGKPLTEEEIAALLREAYPDKEPADLPAEELAKILAAKEGVVRVEVEGS [r1_463_TrMRF]”, the “folding stability dG unfold” value in data set [1] is 1 ± 0.13 kcal/mol; in data set [2], 0.866 ± 0.089 kcal/mol; in data set [3], 0.995 ± 0.12 kcal/mol.
Regarding “SAGEIAEALGFEVVDVSIEEVDGKLRITVVVRFKDNDLVITAEAEVTEVDGELKIEIKITIEPLPPEDLSAG [r5_516_TrROS_Hall]”, the “folding stability dG unfold” value in data set [2] was 2.85 ± 0.26 kcal/mol; in data set [3] it was 3.66 ± 0.37 kcal/mol.
In the same order, the values of “SAGGMVVVKIRIEREVDGKVEEVELVLEVELDEDGKVSAEELKALLKELLPENVKITEIEVVEPGEEPSAGG [r13_504_TrROS_Hall]” are 4.76 ± 0.69 kcal/mol and 3.39 ± 0.2 kcal/mol.
In the same order, the values of “SAGGSAGGSAGGGMGSSVTITTEEDPTDETETTKKTKVTLNLPNPEEAEALKKKIEEKESAGGSAGGSAGGS [r10_1180_JUSTAS]” are -0.47 ± 0.18 kcal/mol and -0.807 ± 0.68 kcal/mol.
The corresponding values for “SAGGSAGGSAGGSKKVIEVPAKDLTPEQLKKLAKEGETIEITFPNGEKKEIPAEKLKPKSAGGSAGGSAGGS [r4_382_TrROS_Hall]” are 0.115 ± 0.15 kcal/mol and -0.998 ± 0.9 kcal/mol.
“SAGGSAGGSAGMTITVPITDLEKLKTMPELPVEVIEEGEGPPTATLDASNPELAKQAYSSSAGGSAGGSAGG [r11_65_JUSTAS]”: the “folding stability dG unfold” value is -0.0977 ± 0.18 kcal/mol in data set [2] and 0.117 ± 0.49 kcal/mol in data set [3].
In the same order, the values of “SAGGSAGGSEEVEIRIVLPDMSEEELKAALEALLSEPGAEIEIVRVERREDGSLVVTVKVRVPSAGGSAGGS [r12_348_TrROS_Hall]” are 4.83 ± 0.43 kcal/mol and 2.9 ± 0.12 kcal/mol.
For “SAMTIEITVPPGMSVEELAKLLKELFPEVEEIKIEVEYDEETKELKVRIEIRPKPELSEEEKEALEKLKSAG [r14_645_TrROS_Hall]”, the entries for the “folding stability dG unfold” value in data set [2] and in data set [3] were 2.9 ± 0.28 kcal/mol and 3.99 ± 0.47 kcal/mol, respectively.
The corresponding values for “SLEEFLASEEAKKRLEALKPPPPVETIRIKVKAKSVEEALKAIRELFPGVEVVKIKEVRPDGYLEVEVRRSA [r9_723_TrROS_Hall]” are 3.89 ± 0.41 kcal/mol and 2.37 ± 0.36 kcal/mol.
For “SMNVKPFSSTISNPAVTVTTPITQPSSGEGTATLTIHRPESVTTTTHPVTDLQALIDSHAAGGVSLTGTSSA [r9_384_JUSTAS]”, the results for the “folding stability dG unfold” value in data set [1] and in data set [2] were under -1 kcal/mol and -0.377 ± 0.095 kcal/mol, respectively.
Consider “SMPISAEELAELFPGVVEIKPEPDSTVITAKDPNGTNPVFTLSPAGTVTVTTYTPGSGTTTTTTIPTALLSA [r9_427_JUSTAS]”, for which the “folding stability dG unfold” value in data set [1] worked out at 0.159 ± 0.071 kcal/mol; in data set [2], 0.681 ± 0.025 kcal/mol.
In the same order, the values of “SMSEELKKEIEAFLKEKGASIDFKTDPSTGKITITVTIPGKGTTTTITLTFPPDNPEEIKEKIKELIEKGSA [r9_42_JUSTAS]” are over 6 kcal/mol and 4.88 ± 0.6 kcal/mol.
In the same order, the values of “SMSPSETETTTYTRTIPFPKSNPEQAKAEAEKEVRAELEAKGLKIDIPITIEWENDTVTVTIPISVTPPLSA [r9_889_JUSTAS]” are -0.144 ± 0.29 kcal/mol and 0.594 ± 0.13 kcal/mol.
As for “SMTITHKIPPDDPEKAEEEIKEKIEKETGLKVEKVEVPEGDGATLVVTIDKEKPVVTAEVVPLLPDGTPVSA [r9_173_JUSTAS]”, the results for the “folding stability dG unfold” value in data set [1] and in data set [2] were 0.191 ± 0.35 kcal/mol and 0.85 ± 0.17 kcal/mol, respectively.
In the same order, the values of “SSFMEQARNMAEELLQKKGLPPKPGEKVEIPIPYPNGMQIRITINPEEKKIDVEFYNDNQPVEHTFKIKKSA [r9_426_TrROS]” are -0.821 ± 0.76 kcal/mol and 0.267 ± 0.33 kcal/mol.
Consider “SSMSTPSSSTLTVELPDREVTASATTTTLPDGTTTTTTTFPDGSTITYDPATGTTTIYDPATGAPLATTGSA [r9_970_JUSTAS]”, for which the “folding stability dG unfold” value in data set [1] came out at 0.344 ± 0.047 kcal/mol; in data set [2], 0.959 ± 0.048 kcal/mol.
In the same order, the values of “SVPPFLNLPEAAKALAKAKPGPPVPRLTFPVTTDDPEEALEEILKQYPHLHPDKIKRVEVGDGYLTVEFGSA [r9_723_TrMRF]” are under -1 kcal/mol and -0.936 ± 0.34 kcal/mol.
The corresponding values for “SVVNFPVSLAATRDGNPVPIEEVLERVAKEIGGPDVKPEIKPGPGDTLVATVKLPDGTTATASDSSSVTDAS [r1_168_JUSTAS]” are under -1 kcal/mol and -0.293 ± 0.11 kcal/mol.
In the case of “SVVTLEQVAELVEKGVELVAVLPDNRLLFYDPEREEPIELEVEEVPPPKPIFIEGGVESLEEALKFLEAESA [r9_649_TrMRF]”, the results for the “folding stability dG unfold” value in data set [1] and in data set [2] were -0.381 ± 0.37 kcal/mol and 0.456 ± 0.027 kcal/mol, respectively.
